For the experiment, the target named is human ornithine decarboxylase, wild type (human) (UniProt P11926).
Sequence of human ornithine decarboxylase, wild type (human) (P11926 whole entry, the tested form may be a part): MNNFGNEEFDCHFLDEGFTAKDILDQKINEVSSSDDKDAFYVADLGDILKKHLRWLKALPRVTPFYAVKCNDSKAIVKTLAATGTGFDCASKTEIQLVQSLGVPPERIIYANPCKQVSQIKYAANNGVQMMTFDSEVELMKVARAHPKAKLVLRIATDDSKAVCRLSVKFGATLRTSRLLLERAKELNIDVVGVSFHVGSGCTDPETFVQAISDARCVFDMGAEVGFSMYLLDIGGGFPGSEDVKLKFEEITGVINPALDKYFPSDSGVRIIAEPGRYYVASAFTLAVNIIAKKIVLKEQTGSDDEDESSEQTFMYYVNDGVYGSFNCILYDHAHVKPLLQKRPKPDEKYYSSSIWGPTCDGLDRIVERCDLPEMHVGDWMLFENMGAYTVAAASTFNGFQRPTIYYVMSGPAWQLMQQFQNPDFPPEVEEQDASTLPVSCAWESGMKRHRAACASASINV
Sequence of human antizyme peptide AZ_126-228 (P54368 126-228): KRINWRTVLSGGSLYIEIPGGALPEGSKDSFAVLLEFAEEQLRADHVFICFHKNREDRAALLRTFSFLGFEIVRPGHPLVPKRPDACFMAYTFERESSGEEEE
Sequence of human antizyme peptide AZ_87-228 (P54368 87-228): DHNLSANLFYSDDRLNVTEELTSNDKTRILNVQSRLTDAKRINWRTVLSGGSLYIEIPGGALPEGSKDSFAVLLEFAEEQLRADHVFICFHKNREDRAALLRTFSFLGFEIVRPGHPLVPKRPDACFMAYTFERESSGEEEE
Sequence of human antizyme peptide AZ_106-228 (P54368 106-228): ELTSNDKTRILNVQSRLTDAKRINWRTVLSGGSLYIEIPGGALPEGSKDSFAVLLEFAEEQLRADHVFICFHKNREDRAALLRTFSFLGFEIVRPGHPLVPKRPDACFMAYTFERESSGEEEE
Sequence of human antizyme peptide AZ_100-135 (P54368 100-135): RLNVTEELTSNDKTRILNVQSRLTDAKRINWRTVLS
Sequence of human antizyme peptide AZ_95-169 (P54368 95-169): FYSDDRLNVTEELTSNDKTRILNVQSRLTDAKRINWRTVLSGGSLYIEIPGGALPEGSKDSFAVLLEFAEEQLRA
Sequence of human antizyme peptide AZ_100-124 (P54368 100-124): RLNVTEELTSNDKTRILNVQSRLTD
Sequence of human antizyme peptide AZ_114-228 (P54368 114-228): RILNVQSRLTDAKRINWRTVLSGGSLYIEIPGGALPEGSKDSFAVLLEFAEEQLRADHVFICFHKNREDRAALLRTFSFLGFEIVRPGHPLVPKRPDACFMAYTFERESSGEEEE
Substance “human antizyme peptide AZ_87-228 (from UniProt P54368 87-228) (domain or fragment)” showed an IC50 of inhibition of ODC enzyme activity (ODC 0.19 µM), without AZI of 0.17 µM. The value for “human antizyme peptide AZ_95-169 (from UniProt P54368 95-169) (domain or fragment)” was 0.37 µM.

The substance “human antizyme peptide AZ_100-124 (from UniProt P54368 100-124) (domain or fragment)” came in with an IC50 of inhibition of ODC enzyme activity (ODC 0.19 µM), without AZI of 0.82 µM. Substance “human antizyme peptide AZ_100-135 (from UniProt P54368 100-135) (domain or fragment)” displayed an IC50 of inhibition of ODC enzyme activity (ODC 0.19 µM), without AZI of 0.86 µM.

For “human antizyme peptide AZ_106-228 (from UniProt P54368 106-228) (domain or fragment)”, the IC50 of inhibition of ODC enzyme activity (ODC 0.19 µM), without AZI was 0.37 µM.

Consider “human antizyme peptide AZ_114-228 (from UniProt P54368 114-228) (domain or fragment)”, for which the IC50 of inhibition of ODC enzyme activity (ODC 0.19 µM), without AZI stood at 0.97 µM. The substance “human antizyme peptide AZ_126-228 (from UniProt P54368 126-228) (domain or fragment)” returned an IC50 of inhibition of ODC enzyme activity (ODC 0.19 µM), without AZI of 1.19 µM.

(Values after PMC3170320, “Minimal Antizyme Peptide Fully Functioning in the Binding and Inhibition of Ornithine Decarboxylase and Antizyme Inhibitor” (PLoS ONE, 2011).)
